{"source": "patent US20110014182A1", "about": "(published 2011)", "binders": {"B1": {"name": "humanised VH variant H21 in combination with L2 light chain (antibody, human IgG1, kappa, name in Kabat numbering, V domains shown)", "VH": "QVQLVQSGAEVKKPGASVKVSCKGSGFNIKVYYVHWLRQLPGKGLEWMGRIDPENGETIYTPKFQDRVTMTEDTSTDTAYMELSSLRSEDTAVYYCVSSGYWGQGTLVTVSS", "VL": "DIVMTQSPLSLPVTPGEPASISCRSSKSLLHRNGITYLYWYLQKPGQSPQLLIYQMSNLASGVPDRFSSSGSGTDFTLKISRVEAEDVGVYYCAQNLELWTFGQGTKVEIKR"}, "B2": {"name": "humanised VH variant H23 in combination with L2 light chain (antibody, human IgG1, kappa, name in Kabat numbering, V domains shown)", "VH": "B1 VH with L40A, M48I", "VL": "B1 VL", "notes": "Kabat numbering"}, "B3": {"name": "humanised VH variant H24 in combination with L2 light chain (antibody, human IgG1, kappa, name in Kabat numbering, V domains shown)", "VH": "B1 VH with L40A, T76S, D77N", "VL": "B1 VL", "notes": "Kabat numbering"}, "B4": {"name": "humanised VH variant H25 in combination with L2 light chain (antibody, human IgG1, kappa, name in Kabat numbering, V domains shown)", "VH": "B1 VH with L40A, M48I, M70L", "VL": "B1 VL", "notes": "Kabat numbering"}, "B5": {"name": "humanised VH variant H26 in combination with L2 light chain (antibody, human IgG1, kappa, name in Kabat numbering, V domains shown)", "VH": "B1 VH with L40A, M48I, M70L, T76S", "VL": "B1 VL", "notes": "Kabat numbering"}, "B6": {"name": "humanised VH variant H27 in combination with L2 light chain (antibody, human IgG1, kappa, name in Kabat numbering, V domains shown)", "VH": "B1 VH with K13E, L40A, R67K, V68A, E72V", "VL": "B1 VL", "notes": "Kabat numbering"}, "B7": {"name": "humanised VH variant H28 in combination with L2 light chain (antibody, human IgG1, kappa, name in Kabat numbering)", "heavy": "not shown", "light": "DIVMTQSPLSLPVTPGEPASISCRSSKSLLHRNGITYLYWYLQKPGQSPQLLIYQMSNLASGVPDRFSSSGSGTDFTLKISRVEAEDVGVYYCAQNLELWTFGQGTKVEIKRTVAAPSVFIFPPSDEQLKSGTASVVCLLNNFYPREAKVQWKVDNALQSGNSQESVTEQDSKDSTYSLSSTLTLSKADYEKHKVYACEVTHQGLSSPVTKSFNRGEC", "notes": "Kabat numbering"}, "B8": {"name": "humanised VH variant H29 in combination with L2 light chain (antibody, human IgG1, kappa, name in Kabat numbering)", "heavy": "not shown", "light": "B7 light", "notes": "Kabat numbering"}, "B9": {"name": "humanised VL variant L4 in combination with H11 (antibody, human IgG1, kappa, name in Kabat numbering, V domains shown)", "VH": "B1 VH with K13E, M48I, R67K, V68A, M70L, E72V", "VL": "B1 VL with S68T, S69G", "notes": "Kabat numbering"}, "B10": {"name": "humanised VL variant L6 in combination with H11 (antibody, human IgG1, kappa, name in Kabat numbering)", "heavy": "not shown", "light": "B7 light with S48P, S68T, S69G, Q104G, V108L", "notes": "Kabat numbering"}, "B11": {"name": "humanised VL variant L7 in combination with H11 (antibody, human IgG1, kappa, name in Kabat numbering, V domains shown)", "VH": "B1 VH with K13E, M48I, R67K, V68A, M70L, E72V", "VL": "B1 VL with S48P", "notes": "Kabat numbering"}, "B12": {"name": "humanised VL variant L8 in combination with H11 (antibody, human IgG1, kappa, name in Kabat numbering)", "heavy": "not shown", "light": "B7 light with S48P, S68T, S69G", "notes": "Kabat numbering"}, "B13": {"name": "humanised de-immunised construct H48L17 (antibody, name in Kabat numbering, V domains shown)", "VH": "B1 VH with K13E, K30H, G42E, M48I, R67K, V68A, M70L, E72V", "VL": "DIVMTQSPLSNPVTPGEPASISCRSSKSLLHRNGITYLYWYLQKPGQSPQLLIYQMSHLASGVPDRFSSSGSGTDFTLKISRVEAEDVGVYYCAQNLELWTFGQGTKVEIK"}, "B14": {"name": "humanised de-immunised construct H49L17 (antibody, name in Kabat numbering, V domains shown)", "VH": "B1 VH with K13E, V31T, G42E, M48I, R67K, V68A, M70L, E72V", "VL": "B13 VL"}, "B15": {"name": "humanised antibody H11L2 (antibody, human IgG1, kappa, name in Kabat numbering)", "heavy": "not shown", "light": "B7 light", "notes": "Human IgG1 Fc mutated, human kappa"}, "B16": {"name": "humanised antibody H11L10 (antibody, human IgG1, kappa, name in Kabat numbering)", "heavy": "not shown", "light": "B7 light with P8A"}, "B17": {"name": "humanised antibody H11L12 (antibody, human IgG1, kappa, name in Kabat numbering)", "heavy": "not shown", "light": "B7 light with L11N, S48P, S69G"}, "B18": {"name": "humanised antibody H11L13 (antibody, human IgG1, kappa, name in Kabat numbering)", "heavy": "not shown", "light": "B7 light with P8A, S48P, S69G"}}, "note": "Where a chain is given by its changes, count along the chain named.", "data": [{"biological_target": "T1, human β-amyloid (1-40) peptide (human, UniProt P05067 672-711)", "T1 construct": "domain: β-amyloid (1-40); Used free in solution, coated on plates, or N- or C-terminally biotinylated, as told under assay; also called Aβ peptide (1-40); Aβ1-40", "T1 sequence (P05067 672-711 limits assumed)": "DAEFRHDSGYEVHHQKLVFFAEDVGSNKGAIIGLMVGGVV", "assay": "ELISA on human Aβ peptide (1-40)", "values": [{"binder": "B1", "binding result": "binds"}, {"binder": "B2", "binding result": "binds"}, {"binder": "B3", "binding result": "binds"}, {"binder": "B4", "binding result": "binds"}, {"binder": "B5", "binding result": "binds"}, {"binder": "B6", "binding result": "binds"}, {"binder": "B7", "binding result": "binds"}, {"binder": "B8", "binding result": "binds"}]}, {"biological_target": "T1, human β-amyloid (1-40) peptide", "assay": "ELISA on human Aβ peptide (1-40), in combination with H11", "values": [{"binder": "B9", "binding result": "binds"}, {"binder": "B10", "binding result": "binds"}, {"binder": "B11", "binding result": "binds"}, {"binder": "B12", "binding result": "binds"}]}, {"biological_target": "T1, human β-amyloid (1-40) peptide", "assay": "SPR (Biacore T100), antibody captured on anti-human IgG, beta amyloid (1-40), 37°C", "experimental": "Anti-human IgG (Biacore BR-1008-39) was coupled to a CM5 biosensor chip by primary amine coupling. The anti-beta amyloid antibodies were captured on this surface. Beta amyloid (1-40) was then passed over at 256, 64, 16, 4 and 1 nM, with a 0 nM (ie buffer alone passed over the captured antibody surface) used for double referencing. […] The data was analysed using the 1:1 model inherent to the T100. The run was carried out at 25° C. and 37° C. using HBS-EP as the running buffer.\nFrom this panel some constructs were also assessed for binding kinetics at physiological temperature.", "units": {"Kd": "nM"}, "values": [{"binder": "B13", "Kd": 4.72}, {"binder": "B14", "Kd": 4.21}]}, {"biological_target": "T1, human β-amyloid (1-40) peptide", "assay": "SPR (Biacore T100), antibody captured on protein A, human β-amyloid 1-40 at 256-2 nM, 25°C, mean of three experiments", "experimental": "The affinity of selected heavy and light chain combinations was determined using a Biacore T100 instrument. Three independent experiments were performed using humanised antibody immobilised via protein A surface Biacore chips and injection of β-amyloid 1-40 peptides. The chimeric molecule of 6F6 served as a reference molecule. For this Protein A was immobilised on a CM5 chip by primary amine coupling in accordance with manufactures recommendations. Anti-β-amyloid antibodies were captured on this surface and after a period of stabilisation human β-amyloid 1-40 was passed over at concentrations 256-2 nM in halving dilutions. A buffer injection over the captured antibody surface was used to double reference the data set in accordance with Biacore best practice. […] The work was carried out in HBS-EP at 25° C. Results are summarised in Table 13 as the mean of all three experiments.", "units": {"Kd": "nM"}, "values": [{"binder": "B15", "Kd": 9.57}, {"binder": "B16", "Kd": 5.57}, {"binder": "B17", "Kd": 6.95}, {"binder": "B18", "Kd": 7.41}]}, {"biological_target": "T1, human β-amyloid (1-40) peptide", "assay": "competition ELISA, antibody pre-incubated with biotinylated β-amyloid 1-40; competitor immobilised mouse 6F6; Exp 2", "experimental": "(§1) 6F6c and humanised antibodies H11L2, H11L9, H11L10, H11L12 and H11L13 were assessed for their ability to bind Aβ1-40 peptide in solution and inhibit the interaction of human Aβ1-40 peptide with mouse 6F6 monoclonal antibody in a competition ELISA. A constant concentration of biotinylated β-amyloid 1-40 was pre-incubated with serial diluted amounts of humanised 6F6 antibody variants. The mixture including complexed and free amyloid was then added to wells containing immobilised mouse 6F6 monoclonal antibody and incubated for 15 minutes at room temperature. Plates were washed and the amount of free β-amyloid that was still available for binding the immobilised parental 6F6 monoclonal antibody was then detected using streptavidin-HRP conjugate.\n(§2) All humanised variants were able to effectively compete for binding to 6F6 parental monoclonal antibody with very similar IC50 values.", "units": {"IC50": "mg/L"}, "values": [{"binder": "B15", "IC50": 0.578}, {"binder": "B17", "IC50": 0.549}, {"binder": "B18", "IC50": 0.531}]}, {"biological_target": "T1, human β-amyloid (1-40) peptide", "assay": "competition ELISA, antibody pre-incubated with biotinylated β-amyloid 1-40; competitor immobilised mouse 6F6; Exp 1", "experimental": "as §1, §2", "units": {"IC50": "mg/L"}, "values": [{"binder": "B15", "IC50": 0.862}, {"binder": "B16", "IC50": 0.622}, {"binder": "B17", "IC50": 0.561}, {"binder": "B18", "IC50": 0.616}]}]}
